Data reported in paper PMC12440816.

Experiments:
[1] = target: MCM replicative helicase hexamer (Mcm2–7), loaded on DNA (Saccharomyces cerevisiae) (UniProt P29469)
[2] = target: MCM replicative helicase hexamer (Mcm2–7), loaded on DNA (Saccharomyces cerevisiae) (UniProt P29469); remark: listed apart in the source
[3] = target: Luc-MCM/Cdt1 (luciferase-tagged MCM in complex with Cdt1) [Saccharomyces cerevisiae]; assay: MCM recruitment assay (DNA pulldown, luciferase-tagged MCM) in ATPγS; conditions: ARS1 origin, read off a plot

Substance | high-salt-resistant luciferase-tagged MCM on the 300 bp[lacO] template, with IPTG against without IPTG, after free MCM–Cdt1 and Cdc6 were washed off [1] [fold] | high-salt-resistant luciferase-tagged MCM on the 300 bp[lacO] template at 30 min, with IPTG against without IPTG (SHs loaded by Orc2∆N behind a LacI roadblock) [2] [fold] | response ([3]; + CDK (Orc2 phosphorylated)) [fmol] | response ([3]; - CDK (ORC not phosphorylated)) [fmol]
MCM replicative helicase hexamer (Mcm2–7), loaded on DNA, P29469 1-868; P24279 1-971; P30665 1-933; P29496 1-775; P53091 1-1017; P38132 1-845 | 3.3 | 3.8 |  | 
origin recognition complex (ORC), wild type mutant Orc6:S106A; Orc6:S116A; Orc6:S123A; Orc6:T146A [Saccharomyces cerevisiae] / Luc-MCM/Cdt1 (luciferase-tagged MCM in complex with Cdt1) [Saccharomyces cerevisiae] chain 6 S106A, chain 6 S116A, chain 6 S123A, chain 6 T146A |  |  | 230 | 250
